T1: Human CLEC-1A (human, UniProt Q8NC01 74-280, limits assumed)
T1 construct: Bought protein; also called C-type lectin domain family 1 member A
T1 sequence (looked up): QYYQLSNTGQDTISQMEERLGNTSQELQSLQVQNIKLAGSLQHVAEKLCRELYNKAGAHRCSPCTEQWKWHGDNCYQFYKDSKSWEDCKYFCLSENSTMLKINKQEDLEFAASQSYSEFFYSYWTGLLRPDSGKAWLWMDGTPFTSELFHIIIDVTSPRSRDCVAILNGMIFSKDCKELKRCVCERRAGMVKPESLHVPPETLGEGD

T2: Human SR-A1 (MSR) (human, UniProt P21757 77-451)
T2 construct: Bought protein; also called Macrophage scavenger receptor types I and II
T2 sequence (looked up): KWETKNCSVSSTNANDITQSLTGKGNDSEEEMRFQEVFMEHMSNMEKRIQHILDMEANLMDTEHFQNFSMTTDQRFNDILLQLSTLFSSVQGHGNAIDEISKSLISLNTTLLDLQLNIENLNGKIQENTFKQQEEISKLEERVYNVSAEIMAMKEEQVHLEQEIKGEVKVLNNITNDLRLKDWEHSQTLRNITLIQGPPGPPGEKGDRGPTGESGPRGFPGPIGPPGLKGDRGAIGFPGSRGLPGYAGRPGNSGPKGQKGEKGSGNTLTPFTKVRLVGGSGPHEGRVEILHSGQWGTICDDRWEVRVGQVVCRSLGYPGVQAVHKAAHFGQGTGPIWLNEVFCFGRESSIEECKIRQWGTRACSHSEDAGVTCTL

T3: Human CLEC-7A (Dectin-1) (human, UniProt Q9BXN2-2 66-201, limits assumed)
T3 construct: Bought protein; also called C-type lectin domain family 7 member A
T3 sequence (looked up): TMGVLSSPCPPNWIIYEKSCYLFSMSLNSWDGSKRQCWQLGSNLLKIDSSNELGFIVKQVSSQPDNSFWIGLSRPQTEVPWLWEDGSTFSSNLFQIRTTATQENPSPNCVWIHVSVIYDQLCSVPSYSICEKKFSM

T4: Human CLEC-4L (DC-SIGN) (human, UniProt Q9NNX6 62-404)
T4 construct: Bought protein; also called C-type lectin domain family 4 member L
T4 sequence (looked up): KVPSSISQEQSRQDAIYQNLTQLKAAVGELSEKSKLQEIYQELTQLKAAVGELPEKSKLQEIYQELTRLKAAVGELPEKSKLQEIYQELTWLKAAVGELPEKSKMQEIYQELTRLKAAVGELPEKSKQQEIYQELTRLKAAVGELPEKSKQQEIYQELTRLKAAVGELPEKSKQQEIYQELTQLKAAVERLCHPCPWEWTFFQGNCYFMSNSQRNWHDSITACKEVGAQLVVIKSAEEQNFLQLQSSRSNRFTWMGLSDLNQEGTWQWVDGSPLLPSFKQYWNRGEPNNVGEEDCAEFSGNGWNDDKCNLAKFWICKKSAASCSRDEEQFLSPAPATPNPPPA


Experiments:
[1] = molecular target: T5, human LOX1 on cells (human LOX1 transfected CHO TREX cells) (human, UniProt P78380 1-273); experiment: competition with DyLight 649 AGE-BSA on human LOX1 CHO TREX cells, FMAT
T5 construct: whole, on cells; also called hLOX1 transfected cells; hLOX1 CHO

[2] = molecular target: T5, human LOX1 on cells (human LOX1 …); experiment: competition with DyLight 649 AGE-BSA on hLOX1 CHO TREX cells (FMAT), mean
[3] = molecular target: T6, recombinant human LOX1 (R&D Systems) (human, UniProt P78380 61-273); experiment: competition with biotin CRP on plate-bound recombinant human LOX1, DELFIA
[4] = molecular target: T5, human LOX1 on cells (human LOX1 …); experiment: cell-based or functional assay
[5] = molecular target: T7, human LOX1 SNP K167N variant on cells (K167N SNP transfected CHO TREX cells) (human, UniProt P78380 1-273); experiment: competition with DyLight 649 oxLDL on human LOX1 K167N CHO TREX cells, FMAT
T7 construct: whole, on cells; also called hLOX1 K167N; K167N hLOX1 CHO

[6] = molecular target: T5, human LOX1 on cells (human LOX1 …); experiment: competition with DyLight 649 oxLDL on human LOX1 CHO TREX cells, FMAT
[7] = molecular target: T7, human LOX1 SNP K167N variant on cells …; experiment: competition with DyLight 649 oxLDL on K167N hLOX1 CHO TREX cells (FMAT), mean
[8] = molecular target: T5, human LOX1 on cells (human LOX1 …); experiment: competition with DyLight 649 oxLDL on hLOX1 CHO TREX cells (FMAT), mean
[9] = molecular target: T8, rat LOX1-(FlagHis) extracellular domain (rat, UniProt O70156 55-364); experiment: IgG binding ELISA on coated antigen, europium anti-human IgG detection
T8 construct: extracellular domain
T8 sequence (O70156 55-364): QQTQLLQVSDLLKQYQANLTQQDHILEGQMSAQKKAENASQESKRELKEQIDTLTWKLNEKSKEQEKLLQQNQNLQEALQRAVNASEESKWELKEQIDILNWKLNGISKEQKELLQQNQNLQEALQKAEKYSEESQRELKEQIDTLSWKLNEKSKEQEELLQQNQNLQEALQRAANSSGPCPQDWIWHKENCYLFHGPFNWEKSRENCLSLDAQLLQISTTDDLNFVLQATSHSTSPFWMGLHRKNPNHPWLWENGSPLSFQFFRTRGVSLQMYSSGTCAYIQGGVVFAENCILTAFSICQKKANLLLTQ

[10] = molecular target: T9, rabbit LOX1-(FlagHis) extracellular domain (rabbit, UniProt Q9XTA8 55-274); experiment: as above
T9 construct: extracellular domain
T9 sequence (Q9XTA8 55-274): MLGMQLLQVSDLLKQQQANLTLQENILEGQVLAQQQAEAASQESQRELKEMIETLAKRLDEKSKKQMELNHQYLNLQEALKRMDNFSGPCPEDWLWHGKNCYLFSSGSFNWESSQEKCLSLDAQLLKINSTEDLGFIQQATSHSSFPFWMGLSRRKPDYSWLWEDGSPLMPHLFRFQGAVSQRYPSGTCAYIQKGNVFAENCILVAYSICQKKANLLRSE

[11] = molecular target: T10, mouse LOX1-(FlagHis) extracellular domain (mouse, UniProt Q9EQ09 55-363); experiment: as above
T10 construct: extracellular domain
T10 sequence (Q9EQ09 55-363): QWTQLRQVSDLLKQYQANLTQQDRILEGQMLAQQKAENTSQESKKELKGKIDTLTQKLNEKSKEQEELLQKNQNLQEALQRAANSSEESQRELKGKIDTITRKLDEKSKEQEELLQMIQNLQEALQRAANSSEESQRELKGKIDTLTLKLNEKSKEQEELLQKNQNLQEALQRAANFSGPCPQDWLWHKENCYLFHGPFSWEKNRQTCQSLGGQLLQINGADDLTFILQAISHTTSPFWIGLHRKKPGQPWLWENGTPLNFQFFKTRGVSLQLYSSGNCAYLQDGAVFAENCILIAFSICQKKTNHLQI

Human CLEC-1A = molecular target: T1, Human CLEC-1A; experiment: IgG binding ELISA on coated antigen, absorbance at 450 nm;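 also: specificity panel of related human receptors, coated alongside human LOX1 as the binding positive control, with an isotype human IgG1-TM antibody setting the nonspecific background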
Human SR-A1 (MSR) = molecular target: T2, Human SR-A1 (MSR); experiment: as above
Human SR-B3 (CD36) = molecular target: T11, Human SR-B3 (CD36) (human, UniProt P16671 30-439); experiment: as above
T11 construct: Bought protein; also called Platelet glycoprotein 4
T11 sequence (P16671 30-439 limits assumed): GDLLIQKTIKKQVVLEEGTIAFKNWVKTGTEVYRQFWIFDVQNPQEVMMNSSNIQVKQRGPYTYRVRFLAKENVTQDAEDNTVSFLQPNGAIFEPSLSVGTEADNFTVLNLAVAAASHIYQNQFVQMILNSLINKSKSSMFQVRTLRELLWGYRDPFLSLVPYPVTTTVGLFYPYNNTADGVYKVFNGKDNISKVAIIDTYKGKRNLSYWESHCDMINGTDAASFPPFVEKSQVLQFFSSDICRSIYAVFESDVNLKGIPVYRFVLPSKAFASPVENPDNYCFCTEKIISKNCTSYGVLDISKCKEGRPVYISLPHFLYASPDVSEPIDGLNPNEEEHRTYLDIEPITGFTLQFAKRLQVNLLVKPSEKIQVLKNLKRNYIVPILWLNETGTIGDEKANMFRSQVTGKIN

Human CLEC-1B (CLEC-2) = molecular target: T12, Human CLEC-1B (CLEC-2) (human, UniProt Q9P126 58-229, limits assumed); experiment: as above
T12 construct: Bought protein; also called C-type lectin domain family 1 member B
T12 sequence (Q9P126 58-229 limits assumed): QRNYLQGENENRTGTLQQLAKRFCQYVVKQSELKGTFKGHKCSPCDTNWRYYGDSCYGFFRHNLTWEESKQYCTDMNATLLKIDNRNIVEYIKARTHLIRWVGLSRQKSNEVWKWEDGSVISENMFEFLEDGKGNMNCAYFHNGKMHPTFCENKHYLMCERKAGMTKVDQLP

Human CLEC-7A (Dectin-1) = molecular target: T3, Human CLEC-7A (Dectin-1); experiment: as above
Human CLEC-4L (DC-SIGN) = molecular target: T4, Human CLEC-4L (DC-SIGN); experiment: as above
[12] = molecular target: T6, recombinant human LOX1 (R&D Systems); experiment: competition with biotin CRP on immobilised recombinant hLOX1 (DELFIA), mean
[13] = molecular target: T13, cynomolgus LOX1-(FlagHis) extracellular domain (cynomolgus monkey, UniProt A0A2K5VQ73 76-291); experiment: Biacore, antibody captured on protein G, LOX1 ECD as analyte
T13 construct: extracellular domain; Made in HEK293 EBNA cells; also called cynoLOX1; cyLOX

[14] = molecular target: T5, human LOX1 on cells (human LOX1 …); experiment: competition with DyLight 649 oxLDL on hLOX1 CHO TREX cells (FMAT), mean; mean of n = 3

Binder | IC50 [2] | IC50 (read off the curve) [3] | ROS ASSAY (IC50, mean) [4] | oxLDL/hLOX1 CHO Internalisation (IC50, mean) [4] | IC50 (read off the curve) [5] | IC50 (read off the curve) [6] | IC50 [7] | binding result [9] | binding result [10] | binding result [11] | binding result (Human CLEC-1A) | binding result (Human SR-A1 (MSR)) | binding result (Human SR-B3 (CD36)) | binding result (Human CLEC-1B (CLEC-2)) | binding result (Human CLEC-7A (Dectin-1)) | binding result (Human CLEC-4L (DC-SIGN)) | IC50 [12] | also measured
LX6960073_G82bS_gl IgG1-TM (antibody, V domains shown, Whole human IgG1-TM, germlined, with heavy chain G82bS (Kabat); also called LOX10696_73) VH: EVQLVESGGGLVQPGRSLRLSCAASGFTSDDYAMHWVRQAPGKGLEWVSGISWNSGSIGYADSVKGRFTISRDNAKNSLYLQMNSLRAEDTAVYYCAREGSWNYDALDIWGQGTMVTVSS VL: QSALTQPASVSGSPGQPITISCTGTSSDVGGYNYVSWYQQHPGKAPKLMIYDVSKRPSGVSNRFSGSKSGNTASLTISGLQAEDEADYYCMGGMGRSTNWVFGGGTKLTVL | 0.0177 nM | ~3 nM | 2.21 nM | 0.38 nM | ~0.3 nM | ~0.8 nM | 0.105 nM | no binding (tested: 10 µg/mL (single concentration)) | no binding (tested: 10 µg/mL (single concentration)) | no binding (tested: 10 µg/mL (single concentration)) | no binding | no binding | no binding | no binding | no binding | no binding | 3 nM | IC50 (read off the curve) [1]: ~0.02 nM; IC50 [8]: 0.02 nM
LX5140110 IgG1-TM (antibody, V domains shown, Whole human IgG1-TM (L234F/L235E/P331S); also called LOX514110; LOX514_110) VH: QVQLVQSGAEVKKPGASVKVSCKVSGYTLTELSMHWVRQAPGKGLEWMGGFDPEDFKYHTHQKFQGRVTMTEDTSTDTAYMELSSLRSEDTAVYYCALVWGTQGKGVRGWDYYYGMDVWGQGTTVTVSS VL: QSVVTQPPSVSGAPGQRVTISCTGSSSNIGAGYDVHWYQQLPGTAPKLLIYGNSNRPSGVPDRFSGSKSGTSASLAITGLQAEDEADYYCQSYDSSLSGWVFGGGTKLTVL | 0.0207 nM | ~5 nM | 1.98 nM | 0.312 nM | ~0.4 nM | ~1 nM | 0.492 nM | no binding (tested: 10 µg/mL (single concentration)) | binds | no binding (tested: 10 µg/mL (single concentration)) | no binding | no binding | no binding | no binding | no binding | no binding | 5.02 nM | Kd [13]: 0.154 nM; koff [13]: 0.000168 s⁻¹; kon [13]: 1.09e+06 M⁻¹ s⁻¹; IC50 [14]: 0.105 nM

Source: patent publication US20210347900A1 (AstraZeneca / MedImmune, published 2021)
